Assay: soluble fraction after stress (log2 fold change); higher = more stays soluble; pooled small domains, quantitative proteomics
Settings: stress: pH 4
How it was run: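 Following acid stress at pH 4, the amount of each small protein domain still soluble was measured in pooled custom libraries by high-throughput quantitative proteomics. Its fold change, on a log2 scale, is higher when more of the domain stayed soluble. This fold change is taken as a measure of aggregation propensity.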

Sequence	soluble fraction (log2)
HMRTGLSGMIGEIGIVKQAIDPEGKVAVHGELWKARADVALAAGQTVRVVAVDGLTMTVEATDSK	0.0837
HMQSAEMTLDREGQPVQVRVELTGNEARITFLSDQEQTREALDAGMAQLRELLEQQGMVLAGVTV	-0.491
HMAEPLYKQVKNKIIQNLTSDEWKPGSVIPSETKLAETYGVGVSTIRMAIGELVAARILIRRQGKGTFVSS	0.238
HMLPGKEIPLPEFLREAFARNEPALENFQNLAPSYRRQYILWITSAKTPETVQKRISESIGLLKENRKLGM	-0.0786
HMGDLTVPDLSGLTVDQAKQRLKDMGLVLGKITTQEDSSKPDGVIISQSPSADGKINKGQLVDVVVNKLS	0.206
HMIPNEKEAARWDALTAEHTAKLNALEGDALDKVGSHEDVSIKRAGVGDAAFREKILSRTHPDDLERALST	0.3
HMRWSDQKEIVTLSLDHVLVEKGRKTKEYSWREFRTFTAFEIKKSSKDQINLGFKSKGNTVIIGNF	-0.438
HMKTLDATQRLKLNGEGIIVFNFGKYVDQPVVEIFKKERGYFAWMMSKDFSQQVKNIITKIHNEEILGK	-0.344
HMTVIARQIPPLVPRMLDGLEAFIKLDVPFEEKERLARVQMLRSSLDRDNLDTAEIFRAVLEAYNIELQY	0.195
HMDPTEPLFVGVVTAEPYLNIREYPTTQSKDLGDLFPGMHVNVYEIVPNWYRIDDGWVASAWVKRDWGGG	-0.314
HMVTKTTYAYERLKREIMDGTLGQGEKLVVNAISQRYQVSPMPIREALLKLEQEGLVQSAPHRGAWVHK	0.0193
HMSDIQKGTQINLVNEPLYVSSKTSIVSTYKTGTYYTWGFEANNRIAITNKLENIGVKGQVTGWINKP	0.0239
HMINGTITFYDDTTLKGELSSLDTKYLFIIPNGLVMPEKIAVSDIEYFNLDNGITLIQDGISKQTY	-1.11
HMGNLASGAYEQIKRRILSLEYLPGSILQERGLAEELGISRTPVREAIHRLSQEGWLKINSRKNIRVR	-0.482
HMEELPIIVAQRFLNIFRQLHIFSDERREAFNKMLLELPPEVKSIFQSLPGGTPLQEYMEDLEQKSK	-0.262
HMKFPNVGENLRLLRQEMGISLDKASKMTGVSKAMLGQIERGESSPTVSTLWKISSGFKINFTTLLSE	0.224
HMGGDFVEHLKDLASEAPVIRLVNTIIGRVIDLRASDIHLEPFDDGLHVRYRVDGVIHPGELVPPRLS	-0.249
HMAQLPADMSKVKSADISEAQLQEFIQKATSSGYNMNQIEMEFAKRGMSENEVSLLRPRLRRLMAS	0.212
HMEYKTGIINTNKVRVRNAADADATVIFAINKDIKVKILAEENGFYKIGVSVKNRGNGEDLIGFVKKELIT	0.3
HMAGNNTATKEIAELLIAKGADVNAMNLSPPGREIGGMTPLDMAILGNRNEIADLLRKHGGRTQKELKAE	-0.104
HMFTEPQKLVKRILNMLGHRYDDASIQARSDFQASNNYHKVQVKKKRESMEEYTAWLEEMYDAYRIN	0.0985
HMTTYTGVVTGSGVNVRSGAGTSYPVVGSKTMGDVVTITETVSADGMIWGKIDIGWISMNYVRM	-0.434
HMSRKERERSQHRRDILAAGEKIFAQKGYFNATIEEIAREAEFSVGTIYNFFSNKETLYQEIIRSI	-0.43
HMDIVIPIQVKNVSSGEVLDFPSIRAAARDLKFPKTTISLGVRYAGEKAYKGFVMRYRSDDPWPIVQES	0.103
HMQPFTELTPREREILGHLAEGQSNKVIARHLDISDGTVKLHVKAILRKLGVHSRVEAAVMAVEHGIR	0.4

Sequence	soluble fraction (log2)
HMVKKYEKVKEYLLERILDGTYVPDLPIPPERELASLLDVNRMTVRRAVEELMYDGYLIRKKGSGTYLTR	-0.2
HMYEHLKALRESLGMTQAEFGESVGVAKSTYNNYEIGARDPKSDFWIAVAQRYGVTIDYLMGFSDDPKKT	0.253
HMATIIGSIGIVTQKVGLTGVPGRVYVNNESWAAISANGKEIENDTQVIVVKIDGATLIIEKKG	-0.262
HMTGINMSYEEYKAMADIIVPLIKAGHSPYHIVTNHPELNISEKTLYNYIENGIFREFGLLDINL	-1.91
HMSWAAQVVDKMTNDQLIKSLNEIVNTGKQLGLDITVEQNGDKNFIMTVKDSKGNVQLVTPIG	-0.937
HMDISAFDTEFIISKFGGIRPMAQKLGVPVSTVQGWKQRQTIPQNRMGDILEAAKNYNLELTP	0.114
HMSTKYSSNIISLVKGLMEEDQYKDLMGPPLKKEIIKKVESITDTFPYKFDKDDKEFIVKKVLISLRK	0.148
HMHVSLADQAYKTIRTNILNLTYPPGTQLTEAKLASDLNMSRSPVRTAIKMLQADGLLVSDYYKSMTVK	≥ 0.43
HMNIDVAAEKQQLGPNADQIVKGTVTWMQGLVAKGIWSETDFEEGKIFTATADGINAINKIRRYYGEQT	-0.439
HMTETTTVPKLKGLTKDEAEDAAKSSKIKLEFIDEISKTVEAGVIIKQEKDEGETVNAGDTVKVYVSIGT	-0.0593
HMEKDEYIFVDIDGAVFNPGVYKLIAGSRVIDAINLAGGLKEKAFTQNLNKARKLVDGEKIYIYLEGDEE	-1.23
HMLLPANLTKSQRNIAERVARGQSNLEIAADLNITERTVKAHLTSIYEKTKTGNRLNLALLINLG	-0.17
HMDAVTYAKGSSGETVREIQQLLLDWGYYSGEVDGIFGSRTEDAVEYFQRKNGLTVDGKVGPATLEALGIS	-0.349
HMSGKWSILILHALEQGPKRFNVLHRELSGITQATLTKQLRQLEEDGIILRKAYPQIPPKVEYQLTEIG	0.112
HMEGRTVMATTAVNVRSGPGTSYKILGVLYPGHTAQQIGNTRYGWAQVTWKGHTAYIAARYLRDS	0.301
HMDFSERLARAMSLAGYTQGRLAKEVGMAQSSVNKLLNGANGSRKTVEIASVLGVRPEWLSTGAGEML	0.0512
HMIDIIEYIISEESKGLRADQGIALQNPQYSRSLIQKWIKKGSVLVNNKIIRTKEILLEGDKISITPEENI	-2.29
HMKLHFTINGVHYTWYKQFIRGIQIRELGNIPREDELYLDLPDGWKDDFIEDDEIVDLARPGVEHFISRAK	0.321
HMNYSKQRETILKVLRSTRSHPSVNWIYENVKKEIPDVGLATVYRNLKQLEAAGEIMRIQGDFPEERWDGF	-0.587
HMTENIPPVKIEEMRQKWQDIVLLHGVTSGRKIKSGQATYIWLYRNDQNWLLTFNSRHLSQPQV	-0.263
HMLPELQPGQTFSARIQQALPDNTYRALVAGKQLTLQLPEGAKAGDELELVVLDRSARVIIARQVD	0.336
HMEIGNVIAKLRVSNGLNQREFAKKLEVSNGAVAMWETNKRQPDLEMIKKISNLFDVPTDYILGAGTFQ	0.152
HMSDSAFAEMRRELEALRNSNAEYERALSNFFPEAEDKALAAEAFYQNREYDELVAEREEANVIDGLKR	-0.815
HMEEYLENLTQSKLLHMLDQLSPAYKTVFTLFVLDELSHEEISKMLNISIGTSKSNLFRARKVMRVLMESE	-0.283
HMSENDTILAKFVSVMGNKNLELVIFPDIAYLKGQVSNPEDKTKAETVAQSLLGGKPLVSLIEFE	-0.917

Sequence	soluble fraction (log2)
HMKQNNYATKKELNFFVSRLISLLSYRDFFNPIEKKESMINNIEAIFTRSSLTSQELRTLHGIISNLVE	-1.27
HMDVNSRIRQFLKKMKITVQTFESSIGKTNGYIAHTKSPTAGVLAEIAKVYPDLNLDWLITGEGEMLKN	-0.0635
HMSGHEVMVQRITAIIAELYQYGFVSRKKMMDEFNISERTLYRDLNRLGDRIVPDGDGIYRLAPAYA	-0.954
HMLKKGDQVYIISGKDKGKLGVVSQIVSEERILVDGINLAKKHVKPNPNKNETGGVVEKEMPIHASNVMI	-0.702
HMRKMNDAVFYVEMSRPKRGYYTATYKLITRNPNSLPEHEITRRFFQMLEETIRKNPPYYLWTH	0.104
HMNFMDGFQSFFQESGAMNRPMTADVVSYRLPDGTVQQGNSTMRGLMDQYLKSIGQSPTTGVP	-0.176
HMAQVSDDAELEKWADTAIDEHPKPVEEYRAGNAASINFLMGQVMKMSRGKANPGAVMQILKQKLD	0.22
HMKRKAIDQSWQPDKEAIEILSKAGVNEEFIKEEIPEFILYWSEKGEESDTWNSKFIAQVRRQWAKTQH	0.248
HMQGISGIERSLLDALAFEPAGLDALQARTGLDTPTLQALLMGLELQGHVARLPGSLFQRLVR	-1.35
HMKLARGEFEIMAKFIKEISGISLEQNKTYLIESRLSDLAESEGVKTFSDFFFKAKFNKILKEKIIDAI	-0.957
HMDGISANAVKALIESLIAGEDKRKPLSDQAMSDRLALQGIVLARRTVAKYREELNFPPAHQRKQK	0.22
HMLSNYIGMTLGEAKRNLGQGVNITVNGPNNDNAEVTGQDPTSGSSFDKSKDTITLTT	0.225
HMSNNLAYSQFLDRVKNKEIRKVEIRGQSIVGYTSNNETFKTYAPLNDPKMYDELLTNDVQVQVDPP	0.0357
HMNQLSYTERRVLQVIEGGTTKTGEIEQALAAKMSRPTVHRALDALVGANRIHRLARGEYALGPAP	0.321
HMGQGSAFVYYEVLPKQTEYSLTRKLGLGYADLLSLNPQLARGLQAGMVLKIPRDKAGNLEVKNDLILE	0.165
HMEEFDLNAYITKINSAATLNALKQAYAEANSAALSVKDKDAQRKIIVEKDKRKAELIQETAG	0.313
HMAIKWTPEIEDEVSNKLKEKWSPEQISAWLKKNKSIMISHQRIYQFIVEDKMSGGNLYRNLRQ	0.172
HMVQMKIRAYELEPNDFFIKQNMTYRVMRIQNGMIYAKHLLNSTPITFGAKSMEFVLWTGKYS	-1.05
HMPDPHSEARNIVLNQLNFMPRSRKELETALAKRNIEADVAKIVLDRFEEIGMVDDAAYAEL	-1.2
HMAPPDFTTFMRNYQDMVYSTAVRLIGNETQAEDIAQEVFIKAHAHFENLRTSPSAGGWLKTVATNLSIN	-0.949
HMSPSDLSAEAQKVYALLDGRELSFDTLVEESGFDTGSLLAILMRLEMKMLVEHGADQVYRRSG	-0.98
HMNQASLTYSEFIANVESKAITRVTISGDTISGILADGKPFQTIYPMADLELLPILRRSGVDINVKEVQ	0.22
HMQRSVKNNDTVQVHYTGKLTNGQIFDSSIDKQPLEFQLGQGQIIPGFEKGLIDMTVSEKKTITIPEAEAY	0.133
HMENYIEQLTAKNSEYIHVVTRELVKIGKSDEEIKAILSDILPQIVAAQDQRVLAKDILGTPSEFTAKYAP	0.0161
HMTGGLLVHVAGAVGAPGVVSLPEGARVVDAIEAAGGAREDADTDQLNLARPVVDGEQVRVPVVGEVLE	0.22
